Results as given in the DeepSol protein solubility set.

Assay: soluble on expression in E. coli; label from the status in PepcDB or PDB records

Sequence	soluble on expression in E. coli
MSLVDFIDDNRGEFGVEPICTVLRSAGLQVALSTYYDAKARVPSARALRDAVLGPALCQLWKDNYCVYGARKLWKTARRDGHDVGRDQVARLMRAAGIEGVRRGKRVRTTKADPAAARHPDLVHRNFAAAAPNQLWATDLTFVPTWAGVAYVCFIIDAHSRMIVGWRVASHMRTSMVLDALEMARWSRGTTLQDLICHSDAGSQFTSIRYGERLAEIGAVPSIGTVGDSFDNALAETVNGYYKAELIYGPARSRPWKTVEDVELATLSWVHWHNTSRLHSYLGDIPPTEFEAAFYDAYRTDQPLIGIQEGHHHHHH	not soluble
SMSSHDGLMVFTGNANPALAQEVVKILGIPLGKAMVSRFSDGEIQVEIQENVRGKDVFVLQSTCAPTNDNLMELMIMVDALKRASAGRITAAIPYFGYARQDRRPRSARVAISAKVVANMLEIAGVERIITMDLHADQIQGFFDIPVDNIYATPILLGDLRKQNYPDLLVVSPDVGGVVRARALAKQLNCDLAIIDKRRPKANVAEVMNIIGEVEGRTCVIMDDMVDTAGTLCKAAQVLKERGAKQVFAYATHPVLSGGAADRIAASALDELVVTDTIPLSAESLACPKIRALSSAGLLAETFSRIRRGDSVMSLFAES	soluble
MLYALLLLFGGVSTVSSLRVAVVGEGVIGLSTATAILDLAEKRNIPAPEIHIFHHKPFEKILSRHIAGLFRIDSGSEIDRKYGYDTFEKLATLWREYGGLSGVQLVSGHILSDSKTKLDSQRESYGSLVYNYRDLAEPELFGPTSLFDLPRNTTTRGIHYTAYTSEGLRFCPFLKKELMTKGVRFTQRRIGNLEELGAEFDVVVNSAGLLGGVLAGDDAGNMKPIRGVLIRVDAPWQKHFLYRDFSTITIPVIDHVYMGTVKQEGAFGPNNVTSADIQDITSRYVALQPSFKRVHMLSSFVGYRPGRKQVRVEKQIRETNGSKKFTVVHNYGHSGNGFTLGYGSAVHAAHIVLDLPLDAYHGLVPEPLPINATISEWVKYLDD	not soluble
MSLSFQMKYDIRLRFEVEGIVEKTDVIGAIFGQTENLFGDEFDLRELQDKGRLGRIIVEVKTKGGKSEGEIIIPSNLDRIETALIAAMVESVDKVGPYNSKFELIEIEDIRAEKLKKIIERAKGILSSWSKEKSLDIKEVINEISSAVKVGEITEYGPERLPAGPDVDKDPNLIIVEGRADVINLLRYGYKNVIAVEGATSRIPETLINLSKMKKTVIAFLDGDHGGDLILKELLSNNVKIDFVARAPIGREVEELTGKEIAKALSNMMPLTQYLKKVQEAEQAIAKNVIAKEEKPIQSETTQQVVQITLPQNILEEIKKLPGTLEGVLYDNNWNLIEKVQVRDIIPKLEAYEDNKVAYIIFDGVITQRLLDLASQKNIKMIIGARIGGINKRPQNVDILTFTDIISSEGHHHHHH	soluble
MAHHHHHHMRNGPKVLIALGNELKRGAASHQCKGDVARMYVNYLRQRYSMDEWNHVSNVNSFICEKNNIILIKPVTSLEKNSGLAIKNILNYLNCEDLKNVCIILPDLYRSIGKFKYKSYTKIYEKLGPDFYNILNSNIINNVLCNHFLQLCIGVSNYPNETKNAVAIALQECLSDGELKKIFKTFQLAEEYFHKKIMNGKVITTNYIHFKEKYPAMEPQKSFRRSTASRRYILDVYRHMYK	not soluble
MAHHHHHHMQMEEKQAFFVESVDGRKFKMVIRGDLGKLSVAKIRRYLKSYGVPENQLLLAGNRVLEDAMLGEQFGLENEGVLHLREPTTVQHLAPAAVPSTAQSRTQLQQKPELSYEPQSAWRETRYEPAAHDARQMQREIERLQRQVEAAEARNADLEHQLEQVAESSAPYPPRGGA	not soluble
MILDKKSYDLLSYLLKLETPETVMAISHALNQSRRKVYYQLDKINQALPKGVDQIISYPRLGILLTADQKAACRLLLEEVTDYNYVMKSDERRRLSSIYIAVSTERVTIDKLMQINDVSRNTILNDLTELREELEDKQYKIQLHATKARGYYFGCHPMALIQYLYKLLVDVYQGGNTSFIDIFNRKLSEIQGLSVYFSKDILTYFHEYLFLSQASLGKTINTQDSQFMLQILPFMLLSYRNMRLDSETKSALKQEFHLIWKRKEYHIAQDLARELYHNFKLHLDDIEVSMVAMLMLSFRKDQDHHVESQDYDDMRATISHFIDQLESRYQLHFTHKQDLLKRLTTHCKALVYRKAYGIFLVNPLTDHVKEKYEELFAMTQSCATILEQDWTISLTDDDIAYLTIHLGGELRHNNTEQEKTKLVIVSDDGIGIQKLLFKQCQRYLANGQIEAVFTTEQYQSVYDLLAVDMIVATTDTLKTKIPMLIVNPILSDDDIIKLIRFSKQGRLSEHSRFSTELTKAIEAVVKDESDRYALVSKIEKLIHRELL	not soluble
MGSDKIHHHHHHMAKERALTLEALRVMDAIDRRGSFAAAADELGRVPSALSYTMQKLEEELDVVLFDRSGHRTKFTNVGRMLLERGRVLLEAADKLTTDAEALARGWETHLTIVTEALVPTPAFFPLIDKLAAKANTQLAIITEVLAGAWERLEQGRADIVIAPDMHFRSSSEINSRKLYTLMNVYVAAPDHPIHQEPEPLSEVTRVKYRGIAVADTARERPVLTVQLLDKQPRLTVSTIEDKRQALLAGLGVATMPYPMVEKDIAEGRLRVVSPESTSEIDIIMAWRRDSMGEAKSWCLREIPKLFNGK	not soluble
MYSVSLMHGNPKTAIRPAGWHYGRRVYWIEGLPLIGHIAFGVIDRGTNVLQVRPSTLCFHNCIFCSVDAGPSSRRRRSEYTVEWEQLVVWVEKVARVKGGGLEALIDGVGEPLTHPHITRIIKALKGLDAIERVALETHGGSLSKSLARALEKAGLDRINLSVDAADPRLARSLVGVDWYGVDRVLKTAEWIIANTSIDVVLTPVVLPGVNEKEMATLVHWARRVGAGRKSGWPTGVLIQKFEIHKYGRKPSTVKSVWGWRRFYTWLARLEKETGYRLLVDPGEIGFKPRPRVEKPFERGDRVTLVLVGPGWHKGELLAVDRGWRRVVALYGLTEGEALTPGAEVEARIVRDKDNIFIAVPYAAALEHHHHHH	soluble
IAQQTEETVVEVETVTGFGANDAILDIRSIDEQEDKPLKVEGVEVVSLPFYKLSTKFGDLDQSKTWLLWCERGVMSRLQALYLREQGFSNVKVYR	not soluble
MNTTPLVIGAYAALPATRADQETFYDRLHADLEATGLELPFRDSIHDDPAWLASQLAGRFTDSIITAIPGTMMRVWDGGTFGLASPDDDGRNAAIAFTRSIIDSARALDDAAGHRVIAGIHIHSAPSVTANRDQFLRSLTELLEGMDNDDPRLIIEHCDRYNEAVTGEKRFLSIEQEIAIAKETGIGITVNWGRSAMEAYDTQLPARHIQALVAEGVFEGVMFSGAGDKENTFGAAWADLHLPHHVDEPASLMDDDRIAECLSAAGGAQKYHGAKIQAPADVDVATRVTMLGHITRHLR	soluble
MTMSLEVFEKLEAKVQQAIDTITLLQMEIEELKEKNNSLSQEVQNAQHQREELERENNHLKEQQNGWQERLQALLGRMEEV	soluble
MPEFVQYVGGHFEEVGKEFMQYFIEIGNLKSNETVLDVGCGIGRMAVPLMNYLSDDGTYYGFDLFNKGITWCKNNISTRRNNFHFEHVDIYNQFYNPDGKEDASQYKFPYEDESFDFIFLTSVFTHLLPKELEHYVREIARVLKKDGRCFITFFLINPESSYYLNAGLSPLGFYHQIDNCYVLNKDIPNFAVAYPEEDIRTLLNKYGLEMQTPPHYGSWCGRTEHTSYQDIILAQKLEHHHHHH	soluble
MLKLGHCGVEKQEVQKRIGLRVIELREHKGWSQSDLARACNKDRQAIEKIESGKVNPTIFSLYEIAIALGVSLSKVTGI	not soluble
MHCPFCRHPDSRVIDSRETDEGQAIRRRRSCPECGRRFTTVETAVLAVVKRSGVTEPFSREKVISGVRRACQGRQVDDDALNLLAQQVEDSVRAAGSPEIPSHDVGLAILGPLRELDEVAYLRFASVYRSFSSADDFAREIEALRAHRNLSAHS	soluble
MQALGLIETRGLLPAIECADVMLKTAQVELVGRDFVGGGLVTISVTGDVGAVKAAVEAGAAAVEKISPLLLVSQHVIPRPHQEIEGMIGPSPAAKQAPPVPQPEKVKALPGFDQTTNKQTIDDFVQEFGLEPCVDALKTLPVLKLRNLAREYKGLAIAGRAISKANKEDLIQQLKEYYNQKHE	not soluble
MPPSLRKAVAAAIGGGAIAIASVLITGPSGNDGLEGVSYIPYKDIVGVWTVCHGHTGKDIMLGKTYTKAECKALLNKDLATVARQINPYIKVDIPETMRGALYSFVYNVGAGNFRTSTLLRKINQGDIKGACDQLRRWTYAGGKQWKGLMTRREIEREICLWGQQ	soluble
MSLAKYKKLFEPYTLNNDVVLKNRLVVAPLTIYDSGPDGELTPAAHNFWRNRFRGFGTWIVPFTNVHPSGIGFESPNAFHEENLPTLKAYATISHEQGAKAIIQLAHAGIHADPAMTKGYDLMGPSNLPYMGVRAMTDSEVREMVNAFAYATELAISAGLDGVEIHGANGWLIQQFVSETYNQRTDHWGGSVEKRFNFPLAIIDAIEAVRHKYHRPDFIVGYRFSPEEPGEVGLTMTETLALVDRLLDKPLQYIHISLWNFYKKIRRGGDVKKTRMEAVHDRINGRLPFIGVGDLFAEEQGLKAFNTGWADLLAVGGSVELNPNLIELIKTGQEDQIQSEFDWNEMDSYRFTPAMLYGTLAGNAMFPKVKEGHHHHHH	soluble
MTPTHPTVTELLLPLSEIDDRGVYFEDSFTSWRDHIRHGAAIAAALRERLDPARPPHVGVLLQNTPFFSATLVAGALSGIVPVGLNPVRRGAALAGDIAKADCQLVLTGSGSAEVPADVEHINVDSPEWTDEVAAHRDTEVRFRSADLADLFMLIFTSGTSGDPKAVKCSHRKVAIAGVTITQRFSLGRDDVCYVSMPLFHSNAVLVGWAVAAACQGSMALRRKFSASQFLADVRRYGATYANYVGKPLSYVLATPELPDDADNPLRAVYGNEGVPGDIDRFGRRFGCVVMDGFGSTEGGVAITRTLDTPAGALGPLPGGIQIVDPDTGEPCPTGVVGELVNTAGPGGFEGYYNDEAAEAERMAGGVYHSGDLAYRDDAGYAYFAGRLGDWMRVDGENLGTAPIERVLMRYPDATEVAVYPVPDPVVGDQVMAALVLAPGTKFDADKFRAFLTEQPDLGHKQWPSYVRVSAGLPRTMTFKVIKRQLSAEGVACADPVWPIRR	soluble
MARTEIWLRLMYVGDLYGEAMLNMANSLIRQPQINRTHLQEAGLTARQAERFLQLPAGVLDETLRWLELPQHHFLCADSEIYPPQLRAIDDYPGAIFIDGDPACLHTCQLAVVGSRSHSWYGERWGRLLCESLAKSGLTITSGLARGIDGVAHNAAVSMGGKSVAVLGNGLAKIYPRRHAMLAENLIATGGAVVSEFPLSTPPLPQHFPRRNRIISGLSKGVLVIEAALRSGSLVTARCALEQGRDVFALPGPIGSPGSEGTHWLIKQGATLVTTPEDILENLQYGLHWLPTTAENSLYSLNQDEAALPFPELLANVGDEVTPVDVVAERAGQPVPAVVAQLLELELAGWIAAVPGGYVRLRRASHVRRTNVFV	not soluble
MKITFLGAAKTVTGSCFFVETASTKFLVDCGMFQGYSKNNALNEEEFPFNVEELDYIFLTHAHIDHSGRIPRIYIKGFRGQIIATKATVELCAIMLPDSGHIQEYENEWTNRKRLRAGKPPVEPLYTYQDAVNCLELFRKVSYDEVIKINDEIRVRFRDAGHILGSAIIEMWINERGEEIKIVFSGDLGNKDIPILRDPSIIESADYLVIESTYGNRLHNERVDKAEYFLNLINSTIEKGGNVIIPSFAAGRTQELIYELNKKKEVYDEKLKMLFATPVYIDSPMAISATEVFRNNLDCYDEEAREYIENGDNPLDFPGLQFTRTAEESKALNERKESSIIIAASGMCEAGRIRHHLKHNLWRKDSTIIFVGYQAEGTLGRRLLDGAKKVRLFGEEISVEARIEMIEGFSGHADKEGLLKWIERFNRKPKKIFIVHGEEDAMIEFSEEINRRFNIETVIPSRGESFILNAHNVIAIDEKVRPDNSFRILQVVEKLENIKEEVEELSYILKSDLKQDKTDLELDELMAKLKNIEKSILEALK	not soluble
